From the MegaScale stability set (Tsuboyama et al. 2023)

B1: EEHEE_rd4_0469 (parent)
chain: ITIHVNGVTYHFDNPEEAEKFAQKMAKTYQLKMEIHNGEFHME

Variants of: B1
Experiment: folding stability dG (cDNA display proteolysis); higher = more stable
Conditions: PBS, room temperature

Row | Variant | folding stability dG [kcal/mol]
1 | M42E | 0.615
2 | M42P | 0.756
3 | M42L | 1.3
4 | M42G | 0.673
5 | M42F | 1.24
6 | M42D | 0.727
7 | M42Y | 1.02
8 | M42T | 0.657
9 | M42W | 0.913
10 | M42I | 0.961
11 | M42Q | 0.661
12 | M42H | 0.709
13 | M42S | 0.715
14 | M42A | 0.838
15 | M42V | 0.797
16 | M42N | 0.637
17 | M42R | 0.687
18 | M42K | 0.711
19 | H41R | 0.848
20 | H41P | 0.588
21 | H41Q | 0.682
22 | H41V | 1.11
23 | H41W | 1.57

Row | Variant | folding stability dG [kcal/mol]
24 | H41Y | 1.69
25 | H41N | 0.659
26 | H41T | 0.857
27 | H41S | 0.86
28 | E43G | 1.14
29 | E43D | 0.889
30 | E43Q | 1.21
31 | E43S | 1.34
32 | E43Y | 1.94
33 | E43H | 1.46
34 | E43W | 1.82
35 | E43P | 0.817
36 | E43V | 2.36
37 | E43M | 1.69
38 | E43A | 1.2
39 | E43N | 1.17
40 | E43I | 2.02
41 | E43R | 1.56
42 | E43C | 2.31
43 | E43L | 1.61
44 | E43T | 1.72
45 | E43K | 1.5
46 | E43F | 2.01
